The NTF2 design screens of Basanta et al. (2020)

Assay: protease stability score; higher = more stable; yeast display proteolysis, trypsin and chymotrypsin;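 also: relative to predicted unfolded state with 0 unfolded-like and 1 meaning tenfold more protease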

Sequence | protease stability score
SEDEQSLREHIEWIIRALETGDWKKIEKLLDPHTRQDVNGREHIGREEVSRAIVQTFETLGVDHVQLTEIRNINGRLIVHVKMDVNGKILDLELIVTKIDGKWFMESVRLH | 1.89
SEDERDAHRAWEIWLKTLETGNEEDMLKLMDPNVRIIIGDKHHHGREELEKILRRYDHIDMEHVHLRHLEVQGEKVIYIGEIHMVFHFNGVTRRLHTEAILILTKVNGRWSQKSLEIK | 1.32
SEDERDAHRILDEEFEAIWTGDEHFLRELLDPNVQMDFNGVKLHGRHAFREIFRRFDWVDRIRLEEIRIFNGKVEIHIREDGFIDGRRTNTTSVFFMEKVDGRWKVRKMRIG | 1.66
SEDERDAKFATDLVLHLLRTGDEEKLLQLLDPNVRVEQGNKDWHGREDWHDFMEIMGIDHMTIHHVELRVVNGRVESHVDIRLLVNGRDDDVQLVLFMKKVDGRWRVTSLRFIYR | 1.74
SEDERDAKMFIDLLNEAMHTGDEQIIKDLVDPHVKIFVGDKIYIGWERYRHMLEEIRIHRWDSEIKRYRVFDGRLEVEGVLHFDVEVNGKRREISTHVELHFDKFDGRWIVREISVH | 1.76
SEDERDAKRAEEEFKRHVETGDEKMLREMMDPHVRFEIGDKEFIGWNFAEKLHLDLIERIDHEELILRHINVVNGKVDSDVELRVHVDGVTIIVRTRIISKKIDGRWLIRSIIIH | 0.695
SEDERDAQHFIELWDEAMRTGDFELLHYLMDPHTRILVNGRNLHGWEIYHKLLHEIRVKDSRSEDSRVIGDKVRVDQRVHGIVNGVETDLKTHLITEKFNGRWHYRSVEIK | -0.189
SEDERDARELMEIEIRAKRTGDEDTLERLMDPHMRTDINGKELVGREVLEWERKRVDHIHDFRIHHVTSVNGRLDIDASLRLTVDGVEETMRFRILTRKVNGRWIVEFLIVK | 0.985
SEDERDARHYLKEFEHAIETGDEHRLDELLDPNVKIDIDGVEHHGREWFRTLEHHIRVHSRVELKHIEVYGNFIVMDGHLHREIRINGRRIETHSRTIIIMRKVNGRWLVSELRFR | 1.52
SEDERDARTMTEEITHIIETGDEHRFQELADPNMRLEQGEYHRHGREQVVEFLREVLRELRLKHIHIKDIHVIDGRVIIDVWVHSQYGDKEFTVKVIWIVHKIDGRWIFHSVRIE | 1.35
SEDERDIEHAVKVEIKSYETGDEKSWREYVDPHVRIEQGDFLFHGWEDAVKLYAKIKNLTLEVKDMKVYNGRVHSEGVFKFNGQSMETRLIIFKIDGQWIVHSIHIK | 1.82
SEDERDIREAFKRWVHNVETGDFESLLKLFDPNVKTTIDGREYHGRDFLVRRLSEMRVHHIEIEHFDIQGDKVNVRGRMDGQIGDKRQDVHFVIHMVKINGRWLLTELTEK | 2.23
SEDERDISEVLEEISRIWKTGDEKRFRDLADPNVKMVVNGRELHGRDFAIEAWRKFRELYGIKHIRTVQVNSIDIQGDKVHVDTSMDGQQGEKRTVLRSEIIMLKVDGRWHLESMSFG | 1.72
SEDERDMEKASEDMLRNWMTGDFKSLHTLLDPHYRIDIDGQWHHGRDLWVEALRELLHQLGVERVEARERDFKIQGNKLESHIELRYNGRTIETDDLFIKIDGRWFIHSIHLRIR | 0.94
SEDERDMERFNRLVSHAMETGDEDTLNHLADPNVRVHIGDKDLHGREDYSRWLHELIRRVDYMEVHIHDERLQGDKAIVDSRIRLKFDGVETRIETILYLKKFDGRWRMTTFELK | 0.705
SEDERDSEEWAKILIKLLETGDEDELRRLMDPHVRTEVIVNGRTITHHGREDLTEFLRKLGADVIDIERVRVIDGVVHLDSRSKQGEKHVTLHFEALKINGRWITERFHVKFH | 1.3
SEDERDSKIAAEINRHWLETGDEEHFKKNVDPHTKVRIGDKEYHGRHFLLHILEHHVKHLWFEVRIEDLRLIGDFVHIDMVLFIRVDGRQETFRIRIIAQKIDGRWVVKHINIE | 0.097
SEDEREAIRFLELWVRESRTGDEDSTDRLADPHTRVEFENHHSVGREHAVTFLIHLRTHHFEIHEVQVFNGRIEMRLHVDGIFNGRRYRSDVLLVVLKIDGQWLLHSIRFH | 1.52
SEDEREFEEFVRFFFKMMVTGDEDDLIRLLDPHAKFEINGKILHGWRHLLEEIREMGIKHWKIRDIKVQGEKVENELELEVGEKRFHIRLIATKVNGKWHVKEFSIHEI | 2.29
SEDEREFLDVLKWLIEAVATGDERIWKELVDPHVRLEVGDKHRHGRETFEKTMRHLRVKEVRVKLHDFDFIGEKMTADVKLEIHLIVGDKERDIRLDIIVHSRKIDGKWHVESIHIR | 1.51
SEDERELKHWQTIALRLWKTGDFKSELENLDPHARLHINGVHIIGRERMKEFLERIKNLRVEHLHDEHVHIQGDKITLHGHMDVIINGQRTEVDYEFILLKVNGRWLDHSIEMR | 1.1
SEDERFWKKALDDLLDTIRTGDEHKFREMMDPNVRVHIGDKHFHGREQASEQVVRLGVDHIELRRVDFQGDYLEIHGHLRVNGRETRIHFVLLKIDGRWVVKEVRQE | 2.21
SEDERFWVERLEEVLRAILTGDEDRIRELADPDVRVRYGDKELHGWKDLHEFMEFFKNVRINVRHVRNQGDKQEVDSEFTFEGRRHETELRLVVINGRVRHIEIIIR | 1.41
SEDERLALKMAEVIMHHLSTGDERILESFFDPNVQFIYGDKTNHGMEETLKFWEHIRIEVKSFTWKHITHVDGRLEMHTRSRELFIYGEFKEDRETRVHIIIDKVDGKWNHHSVRFR | 0.06
SEDERLAREVIEILHNIMHTGDEHLLDEMLDPNAKVHFDGKDFHGMDVWIKFLIEIRVDSIHVRRVHSINGVLHVDSELDGTINGKKDIRRTRIIMEKVDGRWRVTEVRYV | 1.41

Sequence | protease stability score
SEDERLLREAVEELIHSWETGDFDHVLRMFDPDVRLHFEGRHTHGREVYEQQLRFLWERFKNVRITVEYKHVEVINGKAIVHGKLLLIIGDKTVELTNEIYVRKINGKWLSEEIRIK | 1.44
SEDERLMKKLWEDLIRDLITGDEDSMKRLADPNVLVEFENHKEHGRDLFSHLMFHARIKRIHTHEVEIQGDKAVYNVRIDGEINGQRHDYEREIYSFKVNGQWFIERVIIK | 1.4
SEDERLVRHALNELLHHIETGDEERLIKLIDPNYRISINGQELHGWEEYVRLIREWRIRRFRVKDVDVQGDKANLDVRTHGDIDGQHHDFTIKIIATKINGRWINEEIIVE | 2.4
SEDERQAEEASEQFLRSVETGDFDELSRLFDPDMKVVFNGKELHGRETYIRLERERRRDLGIKHVKVRVKDFRIINGRLHLHTELEFNVGDKSFTHESRYTWEKVNGRWVIRSVDID | 2.15
SEDERQSEHMNRLIFESLETGDFHKLMRLMDPHARAVVDGREVHGMELLEEILKRIKDELGVTRIRTRIRTERTQGNKADNITEYEIGDKSFTVIIHNQKIDGRWVIHEVRFE | 1.24
SEDERRFREALRIWFQLVRTGDEEELKHFFDPNVRIHIGDKTFHGMELVLRQIVEEAREIRVRSVTIHELDRQGEWIHMDVRIDEEINGRRIHHSVEIIALKINGKWFFHSIIIR | 1.4
SEDERVAEELLRLLSEYLKTGDEQIVTELLDPHTKMIIDGQTHIGMDVWQMLRKHIRVKNSDVHDVKFVDGRMHLDMRVHGHVNGVDVTRRLHVHTHKINGRWHIKEIHIE | 1.46
SEDERVAFELVVIWSEALITGDEHTSIELLDPNTRIIFNGRDRHGRTFLQEWMKQLRVERIRIHIHHINLQGDKLKVFSELRFVGNVDGVRDEIKTEVVVFLDKIDGRWIVSHIDVH | 2.22
SEDERWLELLSRLLIEATRTGDWRELRHMLDPNVQLSFDGVQLHGRETIIEFLRHEERRLGVKHIDLHDRRIEYFDGRVILESELIIHYGDKEHRSEVRVYANKVNGRWFIEHIEIG | 2.13
SEDERYAEIADRIVRHSQETGDETDHMRMMDPDVRIEIGDKRYHGRELEHKLLKIWGVTRIEYDVRSIEVQGEKVRIDGVINFNGVELKIILYVLKFNGKWSYTKVEIQ | 1.84
SEDESAARHVIERMSHNLMTGDEEDLSDQFDPHVRVDINGVEIIGREELLRWLREWLRHAGVSKFNVHIIPREIRLIGDFMEINGELRMNYNGKEERTETRIIVFKFNGKWSIERMRIH | 1.72
SEDETEEHKFHNILSHAWETGDEEVLERLADPHVRFFYNGKEQVGRELMVELLRELLKRLGVDRIEIEIKDVRLQGDKARWHGDNVFNGRRVHVHISLVKVNGRWRIHHLDMG | 1.31
SEDETELKRWVERFERSMHTGDEEDLRQMADPNTRFEVGDKEIHGWDLWSKIHRKEREKLGVDNVTTNIKRLEMYGDKLRLESELIFNGQRLEVILIAEKIDGKWVVTSFHIH | 0.129
SEDETHFKHMWKLILDTSITGNEELLKTLFDPHYRLSVDGVEFHGREALRYWLDRVDHVEDHRIKSFELQGDKIYMNGESKTQQGDKTHSHDIHIFTKKIDGQWVIHSLHVR | 1.16
SEDETIALEFLKNWLRDLKTGNEEALSKLLDPNARMVFNGKEHHGREILLDIIKHFVERIDHFNSLHVHDIKIQGDKVHMDLRLIGHVDGREVEHRIHMVIIKYDGRWINQVEEIE | 1.16
SEDETLAEEAVEEFEKHMETGDEDELIRLVDPHVKIHFNGRDIHGWKWIHVFLRDLGVDVKRIHVKDIEVFNGVVLLRGEFRFRFNGQDFSKDVENIIVKVDGRWFHHEIRIR | 1.85
SEDETLMRHLVQLFIRREATGDWKKLDELFDPNVRIDINGVEYHGREDWLKHYEDLLKRIKNVRIEIDDQHMEVVGDFIHYDLHGTLEVNGRNIRMQIIIHIRKIDGKWLIEEQIIIIR | 1.4
SEDEWWARYVTKLLIHSMKTGDEDLLHELADPSTKLDVGDKRYHGREEFRRLMRELRERADHLTISIKHIEVQGDKVDLDMHIRLEYGDKFIELRVHIHVEKVNGQWRLREREER | 0.879
SEDFHRIFHMLELIIRAWITGDEELLEKLADPHVRIDIDGVDIVGMELVSTFLHEIRFDLKQIRFKDIHVVNGRIRLHGESDVHVQIGDKEYEIRSEEEWIVTKVNGQWRLTEVRYL | 2.08
SEDHDLVREVARLYIDAVKTGDEDLIRFLFDPHVRSEINGVQLHGWEEVFRFWQELRVHHIDLHSVHVEFQGDKAINRNEVHYNGEYGDKRNRYRLDLRIILHKIDGRWIVEEVHLITD | 1.45
SEDHDTDRHIMDLILRDVFTGDEEEFTRLADPNVKHIDENHFSVGWENVLEMLRFWEDEARMTDIKIHDLEIQGDKIVSHVHIDGEVNGKRRELEVIIYILKVDGKWHLEYFEVR | 2.2
SEDHEAAHDMLELLRHMELTGDENSLMDLLDPNAKNDVDGKVSVGREEWLRMVHFLLTRFDHIKSIEVEESRHIDGRLNYQTRLRGTVNGQDVELRTEWIVIKVNGKWFLHKVRFV | 1.24
SEDHEAAHEVIREWEKVHKTGDEHIFTQLLDPHMRIEIGDKRFHGRDEAVTHFRENLTHWRIHRMEMEDVNSQGEYIIYHVQNFVRINGKVVILDLTIIILKVDGRWVIHSIHIK | 1.24
SEDHEAFDSMIQSWLDVYLTGDEDIMLELFDPRMRVDINGKDIHGMHHYTDLLHKVRRERGFEEHLRIEDSKVINGKAEFHTHVHIRQGDKNMEFEVTIVVLKINGKWWIKHIEIT | 0.922
SEDHEALHKFLKELIESSRTGDWEDVTRLADPHTRQDFNGKILHGREELKETLKELGINHMEVILNRIDVQGDKAHVDGHLVIYYNGKEITREREIRMVKIDGVWLMHEVRIK | 1.15
